Source: paper PMC10980208, “A novel micellular fluorogenic substrate for quantitating the activity of 1-phosphatidylinositol 4,5-bisphosphate phosphodiesterase gamma (PLCγ) enzymes” (PLOS ONE, 2024)

B1: PLCγ1 (Homo sapiens) (protein)
chain: AGAASPCANGCGPGAPSDAEVLHLCRSLEVGTVMTLFYSKKSQRPERKTFQVKLETRQITWSRGADKIEGAIDIREIKEIRPGKTSRDFDRYQEDPAFRPDQSHCFVILYGMEFRLKTLSLQATSEDEVNMWIKGLTWLMEDTLQAPTPLQIERWLRKQFYSVDRNREDRISAKDLKNMLSQVNYRVPNMRFLRERLTDLEQRSGDITYGQFAQLYRSLMYSAQKTMDLPFLEASTLRAGERPELCRVSLPEFQQFLLDYQGELWAVDRLQVQEFMLSFLRDPLREIEEPYFFLDEFVTFLFSKENSVWNSQLDAVCPDTMNNPLSHYWISSSHNTYLTGDQFSSESSLEAYARCLRMGCRCIELDCWDGPDGMPVIYHGHTLTTKIKFSDVLHTIKEHAFVASEYPVILSIEDHCSIAQQRNMAQYFKKVLGDTLLTKPVEISADGLPSPNQLKRKILIKHKKLAEGSAYEEVPTSMMYSENDISNSIKNGILYLEDPVNHEWYPHYFVLTSSKIYYSEETSSDQGNEDEEEPKEVSSSTELHSNEKWFHGKLGAGRDGRHIAERLLTEYCIETGAPDGSFLVRESETFVGDYTLSFWRNGKVQHCRIHSRQDAGTPKFFLTDNLVFDSLYDLITHYQQVPLRCNEFEMRLSEPVPQTNAHESKEWYHASLTRAQAEHMLMRVPRDGAFLVRKRNEPNSYAISFRAEGKIKHCRVQQEGQTVMLGNSEFDSLVDLISYYEKHPLYRKMKLRYPINEEALEKIGTAEPDYGALYEGRNPGFYVEANPMPTFKCAVKALFDYKAQREDELTFIKSAIIQNVEKQEGGWWRGDYGGKKQLWFPSNYVEEMVNPVALEPEREHLDENSPLGDLLRGVLDVPACQIAIRPEGKNNRLFVFSISMASVAHWSLDVAADSQEELQDWVKKIREVAQTADARLTEGKIMERRKKIALELSELVVYCRPVPFDEEKIGTERACYRDMSSFPETKAEKYVNKAKGKKFLQYNRLQLSRIYPKGQRLDSSNYDPLPMWICGSQLVALNFQTPDKPMQMNQALFMTGRHCGYVLQPSTMRDEAFDPFDKSSLRGLEPCAISIEVLGARHLPKNGRGIVCPFVEIEVAGAEYDSTKQKTEFVVDNGLNPVWPAKPFHFQISNPEFAFLRFVVYEEDMFSDQNFLAQATFPVKGLKTGYRAVPLKNNYSEDLELASLLIKIDIFPAKENGDLSPFSGTSLRERGSDASGQLFHGRAREGSFESRYQQPFEDFRISQEHLADHFDSRERRAPRRTRVNGDNRL
B2: PLCγ2 (Homo sapiens) (protein)
chain: MSTTVNVDSLAEYEKSQIKRALELGTVMTVFSFRKSTPERRTVQVIMETRQVAWSKTADKIEGFLDIMEIKEIRPGKNSKDFERAKAVRQKEDCCFTILYGTQFVLSTLSLAADSKEDAVNWLSGLKILHQEAMNASTPTIIESWLRKQIYSVDQTRRNSISLRELKTILPLINFKVSSAKFLKDKFVEIGAHKDELSFEQFHLFYKKLMFEQQKSILDEFKKDSSVFILGNTDRPDASAVYLHDFQRFLIHEQQEHWAQDLNKVRERMTKFIDDTMRETAEPFLFVDEFLTYLFSRENSIWDEKYDAVDMQDMNNPLSHYWISSSHNTYLTGDQLRSESSPEAYIRCLRMGCRCIELDCWDGPDGKPVIYHGWTRTTKIKFDDVVQAIKDHAFVTSSFPVILSIEEHCSVEQQRHMAKAFKEVFGDLLLTKPTEASADQLPSPSQLREKIIIKHKKLGPRGDVDVNMEDKKDEHKQQGELYMWDSIDQKWTRHYCAIADAKLSFSDDIEQTMEEEVPQDIPPTELHFGEKWFHKKVEKRTSAEKLLQEYCMETGGKDGTFLVRESETFPNDYTLSFWRSGRVQHCRIRSTMEGGTLKYYLTDNLTFSSIYALIQHYRETHLRCAEFELRLTDPVPNPNPHESKPWYYDSLSRGEAEDMLMRIPRDGAFLIRKREGSDSYAITFRARGKVKHCRINRDGRHFVLGTSAYFESLVELVSYYEKHSLYRKMRLRYPVTPELLERYNMERDINSLYDVSRMYVDPSEINPSMPQRTVKALYDYKAKRSDELSFCRGALIHNVSKEPGGWWKGDYGTRIQQYFPSNYVEDISTADFEELEKQIIEDNPLGSLCRGILDLNTYNVVKAPQGKNQKSFVFILEPKQQGDPPVEFATDRVEELFEWFQSIREITWKIDTKENNMKYWEKNQSIAIELSDLVVYCKPTSKTKDNLENPDFREIRSFVETKADSIIRQKPVDLLKYNQKGLTRVYPKGQRVDSSNYDPFRLWLCGSQMVALNFQTADKYMQMNHALFSLNGRTGYVLQPESMRTEKYDPMPPESQRKILMTLTVKVLGARHLPKLGRSIACPFVEVEICGAEYDNNKFKTTVVNDNGLSPIWAPTQEKVTFEIYDPNLAFLRFVVYEEDMFSDPNFLAHATYPIKAVKSGFRSVPLKNGYSEDIELASLLVFCEMRPVLESEEELYSSCRQLRRRQEELNNQLFLYDTHQNLRNANRDALVKEFSVNENQLQLYQEKCNKRLREKRVSNSKFYS

Substrate: CCCCCCCCCCCCCCCCOc1cc(COC(=O)Nc2ccc3c(C(F)(F)F)cc(=O)oc3c2)ccc1OP(=O)(O)O[C@@H]1[C@H](O)[C@H](O)[C@@H](OP(=O)(O)O)[C@H](OP(=O)(O)O)[C@H]1O
Experiment: purified protein
Conditions: Ca2+

Protein | Km [µM] | Vmax [µmol/min/mg] | kcat [s⁻¹] | kcat/Km [M⁻¹ s⁻¹]
B1 | 27.7 ± 14.5 | 0.35 | 0.833 ± 0.367 | 32700 ± 6670
B2 | 4.6 ± 0.8 | 0.019 | 0.045 ± 0.00333 | 10000 ± 1670
